Results: patent US20140128280A1 (published 2014)

T1: Gal80 (UniProt P04387 1-435, limits assumed)
T1 construct: Cy3/Cy5-labeled on arrays; immobilized on SPR chip or ELISA well, or in solution over immobilized synbody
T1 sequence (looked up): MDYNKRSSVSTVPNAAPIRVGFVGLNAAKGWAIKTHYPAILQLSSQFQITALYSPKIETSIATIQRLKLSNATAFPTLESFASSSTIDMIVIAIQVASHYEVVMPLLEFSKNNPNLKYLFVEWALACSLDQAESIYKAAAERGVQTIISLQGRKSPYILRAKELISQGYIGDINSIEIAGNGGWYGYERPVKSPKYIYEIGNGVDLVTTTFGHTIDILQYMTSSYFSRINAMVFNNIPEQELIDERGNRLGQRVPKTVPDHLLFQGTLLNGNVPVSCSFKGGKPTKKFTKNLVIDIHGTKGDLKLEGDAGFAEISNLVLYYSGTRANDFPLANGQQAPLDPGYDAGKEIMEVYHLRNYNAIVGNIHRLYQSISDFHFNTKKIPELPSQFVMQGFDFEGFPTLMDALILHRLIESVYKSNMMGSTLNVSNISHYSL


Columns and labels:
[1] = molecular target: T2, transferrin (human, UniProt P02787 20-698); test: SPR (Biacore A-100), purified peptide at several concentrations
T2 construct: Amine-coupled to SPR chips, tips or beads; Alexa 555-labeled on arrays; also called TRF; pooled human transferrin (Sigma)
Source text: A Biacore A-100 Surface Plasmon Resonance (SPR) system was used to measure the binding response of each peptide to several different target proteins immobilized on a gold surface. The A-100 has four different flow cells and within each flow cell are five addressable spots. Therefore four different proteins and a negative control reference can be used per flow cell. […] Sensorgrams are collected from each immobilized protein, so a binding profile for each analyte versus each of the protein targets is generated for each injection. Target proteins were immobilized using a biotin capture approach in which a CM5 chip was activated using standard amine coupling chemistry and Neutravidin was covalently coupled to the chip. Each biotinylated protein was injected over a single spot and the amount of protein captured was measured. In this manner four proteins were immobilized per flow cell. In this example, the same four proteins were captured in all four flow cells for this experiment.

[2] = molecular target: T3, α1-antitrypsin; test: SPR
T3 construct: also called α-antitrypsin; α-antitrypsine

[3] = molecular target: T1, Gal80; test: gel shift assay
[4] = molecular target: T1, Gal80; test: SPR, synbody in solution (1 µM to 7.81 nM) over surface-bound Gal80

T2 sequence (P02787 20-698 limits assumed): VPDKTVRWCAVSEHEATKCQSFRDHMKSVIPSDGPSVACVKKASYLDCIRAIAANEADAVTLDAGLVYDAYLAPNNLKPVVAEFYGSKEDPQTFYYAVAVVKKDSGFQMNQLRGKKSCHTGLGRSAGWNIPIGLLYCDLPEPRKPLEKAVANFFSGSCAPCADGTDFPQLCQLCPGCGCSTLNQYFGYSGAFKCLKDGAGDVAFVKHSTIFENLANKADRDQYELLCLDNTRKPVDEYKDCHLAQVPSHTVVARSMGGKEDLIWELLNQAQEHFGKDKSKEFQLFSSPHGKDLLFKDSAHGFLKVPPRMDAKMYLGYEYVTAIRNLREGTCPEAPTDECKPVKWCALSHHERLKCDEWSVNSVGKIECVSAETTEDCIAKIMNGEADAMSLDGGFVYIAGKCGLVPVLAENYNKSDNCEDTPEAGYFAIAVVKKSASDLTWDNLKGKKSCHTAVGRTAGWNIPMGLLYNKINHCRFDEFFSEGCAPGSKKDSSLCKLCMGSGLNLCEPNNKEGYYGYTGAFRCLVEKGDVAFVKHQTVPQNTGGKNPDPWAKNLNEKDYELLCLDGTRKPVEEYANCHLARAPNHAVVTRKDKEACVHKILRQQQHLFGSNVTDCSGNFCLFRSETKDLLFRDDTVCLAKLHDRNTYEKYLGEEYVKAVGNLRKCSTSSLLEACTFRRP
T3 sequence (P01009 25-418): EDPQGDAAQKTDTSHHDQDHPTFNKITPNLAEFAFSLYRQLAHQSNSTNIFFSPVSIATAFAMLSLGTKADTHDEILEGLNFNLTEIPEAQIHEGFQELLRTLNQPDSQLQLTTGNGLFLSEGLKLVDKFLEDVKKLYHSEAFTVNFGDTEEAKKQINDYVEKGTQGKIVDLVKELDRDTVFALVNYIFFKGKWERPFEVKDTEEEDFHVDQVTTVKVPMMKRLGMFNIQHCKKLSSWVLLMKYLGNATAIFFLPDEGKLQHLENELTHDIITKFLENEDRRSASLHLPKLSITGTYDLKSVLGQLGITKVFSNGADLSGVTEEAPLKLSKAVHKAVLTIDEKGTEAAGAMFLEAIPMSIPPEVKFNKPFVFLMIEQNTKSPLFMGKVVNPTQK

Binder | binding result [1] | Kd relative to the Kd for gal80 [2] [fold] | Kd [3] [nM] | Kd [4] [nM]
NQYVPIFSQPEDPVQQEGSC (Screened unpurified) [TRF102] | no binding |  |  | 
BP1/BP2 DNA-linked synbody (linker-optimized: BP1 on the template strand, BP2 at position 13 from the 3' end of the variable strand) (designed binder, C-terminal Cys joined through SMCC to the amine-modified cytosine at position 13 from the 3' terminus of the DNA variable strand (SEQ ID NO: 15); C-terminal Cys joined through SMCC to the 5' terminal amine-modified cytosine of the DNA template strand (SEQ ID NO: 14), Two peptides held by a double-stranded DNA linker; also called Gal80 synbody; gal80 synbody) peptide 1: GTEKGTSGWLKTGSC peptide 2: EGEWTEGKLSLRGSC |  | 1000 | ~100 | 91
